# Assay results reported in article PMC10040874.
# B1: Drosophila melanogaster PRL (wild-type) [D. melanogaster] / Drosophila melanogaster CNNM CBS-pair domain, GST-tagged [D. melanogaster] (parent)
# chain 1: MSITMRQKDLRPAPALIEYKGMKFLITDRPSDITINHYIMELKKNNVNTVVRVCEPSYNTDELETQGITVKDLAFEDGTFPPQQVVDEWFEVLKDKYQQNPEACVAVHCVAGLGRAPVLVALALIELGLKYEAAVEMIRDKRRGAINAKQLSFLEKYKPKARLKHKNGHKNSCSVQ
# chain 2: VNIISGALELRKKTVADVMTHINDAFMLSLDALLDFETVSEIMNSGYSRIPVYDGDRKNIVTLLYIKDLAFVDTDDNTPLKTLCEFYQNPVHFVFEDYTLDIMFNQFKEGTIGHIAFVHRVNNEGDGDPFYETVGLVTLEDVIEELIQAEIVDE
# Variants of: B1
# Assay: ITC
# Details: with Drosophila melanogaster CNNM CBS-pair domain, 16 µM CNNM titrated with 160 µM PRL
row,Kd [µM],Variant
1,7.5,chain 1 R143E
2,0.6,chain 1 C109D
